{"source": "paper PMC4078364", "about": "“Complete sucrose hydrolysis by heat-killed recombinant Pichia pastoris cells entrapped in calcium alginate” (Microbial Cell Factories, 2014)", "proteins": {"B1": {"name": "BfrA (Thermotoga maritima β-fructosidase) (Thermotoga maritima MSB8) (protein)", "chain": "MFKPNYHFFPITGWMNDPNGLIFWKGKYHMFYQYNPRKPEWGNICWGHAVSDDLVHWRHLPVALYPDDETHGVFSGSAVEKDGKMFLVYTYYRDPTHNKGEKETQCVAMSENGLDFVKYDGNPVISKPPEEGTHAFRDPKVNRSNGEWRMVLGSGKDEKIGRVLLYTSDDLFHWKYEGVIFEDETTKEIECPDLVRIGEKDILIYSITSTNSVLFSMGELKEGKLNVEKRGLLDHGTDFYAAQTFFGTDRVVVIGWLQSWLRTGLYPTKREGWNGVMSLPRELYVENNELKVKPVDELLALRKRKVFETAKSGTFLLDVKENSYEIVCEFSGEIELRMGNESEEVVITKSRDELIVDTTRSGVSGGEVRKSTVEDEATNRIRAFLDSCSVEFFFNDSIAFSFRIHPENVYNILSVKSNQVKLEVFELENIWL", "notes": "secreted to periplasm of Pichia pastoris PpBfrA(4x); N-glycosylated, 58 and 53 kDa (51 kDa deglycosylated); assayed in heat-killed whole cells"}}, "substrate": "OC[C@H]1O[C@@](CO)(O[C@H]2O[C@H](CO)[C@@H](O)[C@H](O)[C@H]2O)[C@@H](O)[C@@H]1O", "assay": "DNSA reducing sugar assay, initial rates, Lineweaver-Burk", "format": "cell-based, Thermotoga maritima", "conditions": "free (non-immobilized) heat-killed P. pastoris cells with periplasmic enzyme, 10-200 mM sucrose, 50 mM sodium acetate pH 5.5, 60 °C, cell-wall diffusion barrier", "data": [{"protein": "B1", "values": [{"measurement": "Km", "result": 99, "unit": "mM"}]}]}
